From paper PMC4981022
Where two headings read alike, the source gives them in different places.

How the values were obtained:
[1] = biological target: endogenous TRAPPC6A (TPC6A), human cells (human (endogenous in HEK293, BCC, SK-N-SH and other human cell lines)) (UniProt O75865); experiment: western blotting (size of the bands); cytosol and nuclei of BCC cells, with or without UV irradiation; mitochondria of Jurkat T cells treated with PMA for 90 min
[2] = biological target: endogenous TRAPPC6A (TPC6A), human cells (human (endogenous in HEK293, BCC, SK-N-SH and other human cell lines)) (UniProt O75865); experiment: as above; remark: listed apart in the source

Which stoichiometry N [1] does the source give for “endogenous TRAPPC6A (TPC6A), human cells (from UniProt O75865 1-159) (natural protein)” here?
The stoichiometry N was 3.

And the stoichiometry N [2]?
Its stoichiometry N is 2.
